{
  "source": "the DeepSol protein solubility set",
  "data": [
    {"assay": "soluble on expression in E. coli; label from the status in PepcDB or PDB records", "values": [
      {"sequence": "MKLFHTADWHLGKLVHGVYMTEDQKIVLDQFVQAVEEEKPDAVIIAGDLYDRAIPPTEAVDLLNDVLQKIVIDLQTPVIAVAGNHDSPDRIHFGSSLMKKQGLHIVGQFQFPYEPVVLNDEYGEVHFHLIPYADPSIVRHVLKNEDVRSHDDAMRIFMNELSETMDKEARHVFVGHAFVTSSGEAEENTSDAERPLSIGGAEYVNSHYFDKFHYTALGHLHQAHFVRNETIRYSGSPLAYSISEEKHKKGYYIVELNETGEVAIEKRLLSPRRKMRTVEAKIDELLQHPVSEDYVFVKLLDENPVLQPMEKIRSVYPNAMHVERAMQRRELTDTNEVTVSRHKTDDLSLLKAFYKEMKGLDLSEEKERLFIDVLQTVQEREGERG", "soluble on expression in E. coli": "not soluble"},
      {"sequence": "MGSSHHHHHHSSGLVPRGSDYMFKLLLIGNSSVGKTSFLFRYADDSFTPAFVSTVGIDFKVKTVYRHDKRIKLQIWDTAGQERYRTITTAYYRGAMGFLLMYDIANQESFAAVQDWATQIKTYSWDNAQVILVGNKCDLEDERVVPAEDGRRLADDLGFEFFEASAKENINVKQVFERLVDVICEKMNE", "soluble on expression in E. coli": "soluble"},
      {"sequence": "MQQVFNVSVPVPDDVVIISKEEYLNLLSDNEQGKWWDIDNLQELLGIGRSKLINDILLNPDIKKEVDLSINPNGFIVYPKGKGSRYKILATKARKYFEDNFGS", "soluble on expression in E. coli": "not soluble"},
      {"sequence": "MKPDSNGVYAYDMKISKKLTMAYKNDNPAKHATPVDYDYKTQTWSKREPNQLMDCFQNYSFNHISDPGDANRMEDVLVVDGLHKRVISINGDMPGAPVVVPYMSEVWIRVSNQILMDSMTIHVHGIDKHGMWYMDGVAFVQQCPIQSTNKFEYRFIADNKGTHWYHGHMQTDRGDGIAGGFIVVDQNDTSVPTLDDRKRIVPSREYFFLLQDWATKVGEEAWMQLEDKTMKWMYGYDDFTKCWEPTRTSDGGNVGGAVPISAILLNDKGWYDHDIIKSQPFNLPLERFQIKPNEDILFRIVNGGVAQELMLYVEGHPMTVVAADGDEVVPMKVDRLIVFPGERYDILIKGLATPTKKSYRIQVETVQKYFFDWKEIPIVYGFGYIEYETDGLPEDKTTPNLMHPECTQNKKCTVLNCPFQEWMAQPNFTCISYDKLENPNPEKIEAEILQATQFNGGFEEHFINMHHDSQMDQFLFQFPWGIPYYHDGDMETISTSCSQTACANNSMSDLDTTCRCFYHLEHKLNNIVQITLYNMGLGGAMGTGYAHPFHLHGHHFYVMKVGWPSYNGSGFIDQMNQDIDCPGRDVSCNGKKWRNKDWLGGALEAMNTKNPTKRDTITLPVGGYITIRFRAVNPGWWFAHCHLELHLMGGTGYAYKVGDQNQIYMPPDNFPHDCGVFKVDKLPELRLPTQKSSNIPYTFIAVCLVLIIDRIFH", "soluble on expression in E. coli": "not soluble"},
      {"sequence": "METRAAENTAIFMCKCCNLFSPNQSELLSHVSEKHMEEGVNVDEIIIPLRPLSTPEPPNSSKTRDEFLVMKRKRGRPKGSTKKSSTEEELAENIVSPTEDSPLAPEEGNSLPPSSLECSKCCRKFSNTRQLRKHICIIVLNLGEEEGEAGNESDLELEKKCKEDDREKASKRPRSQKTEKVQKISGKEARQLSGAKKPIISVVLTAHEAIPGATKIVPVEAGPPETGATNSETTSADLVPRRGYQEYAIQQTPYEQPMKSSRLGPTQLKIFTCEYCNKVFKFKHSLQAHLRIHTNEKPYKCPQCSYASAIKANLNVHLRKHTGEKFACDYCSFTCLSKGHLKVHIERVHKKIKQHCRFCKKKYSDVKNLIKHIRDAHDPQDKKVKEALDELCLMTREGKRQLLYDCHICERKFKNELDRDRHMLVHGDKWPFACELCGHGATKYQALELHVRKHPFVYVCAVCRKKFVSSIRLRTHIKEVHGAAQEALVFTSSINQSFCLLEPGGDIQQEALGDQLQLVEEEFALQGVNALKEEACPGDTQLEEGRKEPEAPGEMPAPAVHLASPQAESTALPPCELETTVVSSSDLHSQEVVSDDFLLKNDTSSAEAHAAPEKPPDMQHRSSVQTQGEVITLLLSKAQSAGSDQESHGAQSPLGEGQNMAVLSAGDPDPSRCLRSNPAEASDLLPPVAGGGDTITHQPDSCKAAPEHRSGITAFMKVLNSLQKKQMNTSLCERIRKVYGDLECEYCGKLFWYQVHFDMHVRTHTREHLYYCSQCHYSSITKNCLKRHVIQKHSNILLKCPTDGCDYSTPDKYKLQAHLKVHTALDKRSYSCPVCEKSFSEDRLIKSHIKTNHPEVSMSTISEVLGRRVQLKGLIGKRAMKCPYCDFYFMKNGSDLQRHIWAHEGVKPFKCSLCEYATRSKSNLKAHMNRHSTEKTHLCDMCGKKFKSKGTLKSHKLLHTADGKQFKCTVCDYTAAQKPQLLRHMEQHVSFKPFRCAHCHYSCNISGSLKRHYNRKHPNEEYANVGTGELAAEVLIQQGGLKCPVCSFVYGTKWEFNRHLKNKHGLKVVEIDGDPKWETATEAPEEPSTQYLHITEAEEDVQGTQAAVAALQDLRYTSESGDRLDPTAVNILQQIIELGAETHDATALASVVAMAPGTVTVVKQVTEEEPSSNHTVMIQETVQQASVELAEQHHLVVSSDDVEGIETVTVYTQGGEASEFIVYVQEAMQPVEEQAVEQPAQEL", "soluble on expression in E. coli": "soluble"},
      {"sequence": "MEAVQSSGRRMVHAIVWRYFEPRLRGSSVSNPGSNLVRFSEFCRGSMGFHICRLCDQASQWLSLDRSTSQWLSLDRSTVTTAFVWTDAFTTGTAGFNWDNKQPDNKDLNQPCAIVLAAHAPIHFQSYQFQPAMMDDAECAADSVASMGRTISGYVCGKPARQ", "soluble on expression in E. coli": "not soluble"},
      {"sequence": "MSLSKKTQINLKIERAKEEDLPKLVDLYLRAYKGLEEYAYTHPKDVKSYLKWLWNRDKEGIFLAKVDGKIVGFGAGDANWFSRREGKRVGAIHEIVVDPEYQGHGVGTALMNTILEYFKKKGLDTAELWVGDENYKAINFYKKFGFQESGRYNYWIRMIKGIITITTDPNSSSVDKLAAALEHHHHHH", "soluble on expression in E. coli": "soluble"},
      {"sequence": "MSLGRQEMDEHVAIETPYAIALNDRVIGSSMVLPVDLEEFGAGFLFGQGYIKKAEEIREILVCPQGRISVYADVENEEPREVIITSGCGGTGKIPKEMLEGEFAPLADYCLPFAEIKSFIREALHSSPLGPQTHCVHGCGLWNNGRLQVYHEDVGRHNAVDKVLGSILLGRASNNSAVYTTGRLTSDMVLKCARIGIPIIMSRTSPSSLGLALAKRSGATLVAYSRPERINVFNAPERILTEGHHHHHH", "soluble on expression in E. coli": "not soluble"},
      {"sequence": "MTRFAEKVAIITGSSNGIGRATAVLFAREGAKVTITGRHAERLEETRQQILAAGVSEQNVNSVVADVTTDAGQDEILSTTLGKFGKLDILVNNAGAAIPDSQSKTGTAQSIESYDATLNLNLRSVIALTKKAVPHLSSTKGEIVNISSIASGLHATPDFPYYSIAKAAIDQYTRNTAIDLIQHGIRVNSISPGLVATGFGSAMGMPEETSKKFYSTMATMKECVPAGVMGQPQDIAEVIAFLADRKTSSYIIGHQLVVDGGSSLIMGLHCQDFAKLLH", "soluble on expression in E. coli": "soluble"},
      {"sequence": "MSDLVMFEPGASTSTDVPTNTDQTAMSTTQVVDALECDTFEGLMNVNETYVEILDSALLSVQQHLDDNLKRQQQLKEEYRLYNRADITKRKVPVHLYMPPYFKDDNNMYPPMSSEAREKQVLKWFDPMMKEEKKWTPSEIKTLRTSVKNALVAHQVQPWCSRRDIVASKLRDADITTSNFDRRQWTMELEDLMRKIAYVREKSEEEVLTASADYTVVPWTAIANFDFKGSRTEWAVKSKWYNELNPKWNKEHWSNEEVEKLKYLRESPKFVSWPMLALNLGTNRTSYQCMEKYKTEVSQHSKEWSQDEDTKLIALTKITSINGHIQWDKVAQCMPGRTRQQVRTRFSHTLDASVKHGRWTDQEDVLLVCAVSRYGAKDWAKVAQAVQNRNDSQCRERWTNVLNRSAHVNERFTLVEDEQLLYAVKVFGKGNWAKCQMLLPKKTSRQLRRRYLQLIAAKLRLAAGFCNAVDAMKSGRRAPEEDELEQEDIVEAEQIPNELMKEVYEKFANENPDMNETPEEFYKRVSALERPAAARIRALKNKPDYQKIQDKINEIVQKHKNAAEIDKELHSSEILSSLTITEVDVRYMIERSKTLTRYYEARQFRKNVDQIGCRVRPIKIDLDPETMPTFDPNDAEDEKQMVIVESLCSVIRAHDVKEWGTKFWNEHRFTAPKYAKRFVENMVINKSKEVAEWYLHVNSKSCNQNDVHCPAKSTLPPTAASFDLHKMLQKARSGLNRLSAEHFYPLDVSLAQQFNFKNDEREGLDGDRRMHIGLSDEVTNSKEYANFYARMRSILLEPMRLGIARESSSDETKRLVRCLAEERACDEEQQVTCDQIRRRRMPDDEIYVTPTSISRELNNGMKIDTTELLANLDKNSAKKIRMKRKIGEVRCDTKIKLLPLVILATVATVAARPARPPRSSAGTPTPSHVSIDTESNISLKVELD", "soluble on expression in E. coli": "not soluble"},
      {"sequence": "MGGFGLKYRPVPIKRVLPGSIAQESDLQEGDLILSINGQKISDIFDYRFLIADENLVLEVQKKNGEIWEIEIEKDEYEDLGIEFENLMIDDTKSCRNKCIFCFIDQLPKGMRETLYFKDDDSRLSFFMGNYVTLTNMSYDDIDRIIKYKMSPINVSVHTSNPELRVYMLRNKTAGDVMDKIKRLIEGGIKVNAQIVLVRGVNDGKELDRTLKDLSALYPGLNSISVVPVGITKYREGLYELKPFDMESSREVIKQVEAWQMELLSKYGSRIVFIADEFYIMAGLEIPDYCVYEDFPQIENGVGLVAMLKKEFDDYFEELELKLENKREVSIATGVSSYKYIKEMIDILENKYKNLYVHVYKIKNNFFGENVTVTGLLTGQDIERQLSGKNLGRELLLSESMLKSGERVFLDDYTVEMLEDKLKTKITIVRNNGKDFIEKVLGIVL", "soluble on expression in E. coli": "soluble"},
      {"sequence": "MKLIIHQKWYLQQVKDTFTNLQAPRLHWALRNALNTAAKQVERFTEKQVADLSSAQIKRIRRGVYIKEKATARFLETDLIGSGTPLPLKFFKAKETKHGVTYTLFGKKQILTHGFIKGGSFPKRVDLKMGGNVFQRDDGDQFPIAKQEGPSIAKVMSKPEIASAIAQYANERLTKNIQRQLARQEYAANKKG", "soluble on expression in E. coli": "not soluble"},
      {"sequence": "MGSDKIHHHHHHMSIVQAKFEAKETSFHVEGYEKIEYDLVYVDGIFEIQNSALADVYQGFGRCLAIVDANVSRLYGNQIQAYFQYYGIELRLFPITITEPDKTIQTFERVIDVFADFKLVRKEPVLVVGGGLITDVVGFACSTYRRSSNYIRIPTTLIGLIDASVAIKVAVNHRKLKNRLGAYHASRKVFLDFSLLRTLPTDQVRNGMAELVKIAVVAHQEVFELLEKYGEELLRTHFGNIDATPEIKEIAHRLTYKAIHKMLELEVPNLHELDLDRVIAYGHTWSPTLELAPRLPMFHGHAVNVDMAFSATIAARRGYITIAERDRILGLMSRVGLSLDHPMLDIDILWRGTESITLTRDGLLRAAMPKPIGDCVFVNDLTREELAAALADHKELCTSYPRGGEGVDVYPVYQKELIGSVK", "soluble on expression in E. coli": "not soluble"},
      {"sequence": "GMNNIQAIRKKVETQIDDLQNKTDEIAEFNQAKVLDAFQENKVSDFHFHPSTGYGYDDEGRDTLERVYATVFKTEAALVRPQIISGTHAISTVLFGILRPDDELLYITGQPYDTLEEIVGIRKQGQGSLKDFHIGYSSVPLLENGDVDFPRIAKKMTPKTKMIGIQRSRGYADRPSFTIEKIKEMIVFVKNINPEVIVFVDNCYGEFVEYQEPPEVGADIIAGSLIKNPGGGLAKTGGYIAGKEALVDLCGYRLTTPGIGREAGASLYSLLEMYQGFFLAPHVTAQAIKGARFTAAMLAEFGVEADPVWDAPRTDLIQSVSFHNKEKMVAFAQAIQAASPVNAHVLPIGAYMPGYEDDVIMAAGTFIQGASLELTADGPIREPYQLYVQGGLTYEHIKIAVTRAIQKIV", "soluble on expression in E. coli": "soluble"},
      {"sequence": "MGHHHHHHSHPLKMETSGMTTPSLKTDGGRRTATSPPPTTSQTIISTIPSTAMHTRSTAAPIPILPERGVSLFPYGADAGDLEFVRRTVDFTSPLFKPATGFPLGSSLRDSLYASQAGTLWPWWLRSGTMLTSPLVGGPHFIRNTRRSMVNTAC", "soluble on expression in E. coli": "not soluble"},
      {"sequence": "NMAGMNDKASMNDKASMTVKINESLPQGNGKALGTVTVTETAYGLLFTPHLTGLAPGIHGFHLHEKPSCAPGMKDGKAVPALAAGGHLDPNKTGVHLGPYNDKGHLGDLPGLVVNADGTATYPVLAPRLKSLSEVKQHALMIHAGGDNYSDHPMPLGGGGARMACGVIE", "soluble on expression in E. coli": "soluble"}
    ]}
  ]
}
